From article PMC11992040

Assays:
[1] = biological target: SmT1 (CT), resistin-trimerized SARS-CoV-2 spike ectodomain with complex-type N-glycans (SARS-CoV-2 | human) (UniProt P0DTC2); assay: SEC
[2] = biological target: SmT2 (CT), T4 foldon-trimerized SARS-CoV-2 spike ectodomain with complex-type N-glycans (SARS-CoV-2 | bacteriophage T4) (UniProt P0DTC2); assay: SEC-MALS
[3] = biological target: SmT2 (HM), T4 foldon-trimerized SARS-CoV-2 spike ectodomain with high-mannose N-glycans (SARS-CoV-2 | bacteriophage T4) (UniProt P0DTC2); assay: SEC-MALS

In the case of “SmT1 (CT), resistin-trimerized SARS-CoV-2 spike ectodomain with complex-type N-glycans (from UniProt P0DTC2;Q9HD89-1)”, the stoichiometry N [1] is reported as 3.
“SmT2 (CT), T4 foldon-trimerized SARS-CoV-2 spike ectodomain with complex-type N-glycans (from UniProt P0DTC2 14-1208)” was tested, and the stoichiometry N [2] was 3.
“SmT2 (HM), T4 foldon-trimerized SARS-CoV-2 spike ectodomain with high-mannose N-glycans (from UniProt P0DTC2 14-1208)” gave a stoichiometry N [3] of 3.
